In assay [1] the target is T1, cyno TfR extracellular domain (analogous construct to human TfR ecd) (cynomolgus monkey, UniProt Q5RDH6 87-760 (Pongo abelii entry)).
T1 construct: also called cynoTfR ecd
T1 chain: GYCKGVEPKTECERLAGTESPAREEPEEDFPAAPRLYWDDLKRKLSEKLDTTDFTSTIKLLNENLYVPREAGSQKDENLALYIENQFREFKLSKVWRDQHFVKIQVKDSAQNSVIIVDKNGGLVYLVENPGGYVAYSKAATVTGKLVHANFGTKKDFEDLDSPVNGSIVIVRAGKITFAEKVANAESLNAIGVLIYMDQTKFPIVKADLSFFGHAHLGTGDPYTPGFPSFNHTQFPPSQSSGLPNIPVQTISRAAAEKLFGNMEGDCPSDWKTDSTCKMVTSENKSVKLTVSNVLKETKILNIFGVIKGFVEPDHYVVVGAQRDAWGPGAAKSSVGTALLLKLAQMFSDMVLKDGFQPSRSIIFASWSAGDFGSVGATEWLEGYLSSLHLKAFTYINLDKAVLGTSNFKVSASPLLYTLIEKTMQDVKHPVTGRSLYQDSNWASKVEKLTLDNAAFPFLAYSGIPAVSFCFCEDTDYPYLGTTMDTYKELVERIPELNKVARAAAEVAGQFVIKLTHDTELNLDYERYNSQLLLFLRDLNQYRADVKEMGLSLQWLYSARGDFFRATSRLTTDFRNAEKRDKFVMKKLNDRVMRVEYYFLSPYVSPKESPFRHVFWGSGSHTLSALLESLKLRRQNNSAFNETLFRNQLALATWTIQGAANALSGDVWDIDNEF
Description: SPR, IgG. (Surface plasmon resonance follows binding to a sensor surface in real time, without labels.)
Description: (§1) Antibody affinities were measured using surface plasmon resonance (“SPR”) (Biacore™, GE Healthcare). Anti-His antibody (Qiagen) was coupled onto four different flow cells of a BIACORE™ CM5 sensor chip (Biacore, Inc., Piscataway, N.J.) at between 6000 and 8000 RU. Immobilization was achieved by random coupling through amino groups using a protocol provided by the manufacturer. 10×HBS-P (Biacore, Inc., Piscataway, N.J.) was diluted in water and served as the dilution and running buffer. Purified human or cyno TfR was captured, followed by a 3-fold dilution series of IgG or Fab that was injected at a flow rate of 30 ml/min using the single cycle kinetics method. Affinity constants were determined using a simple 1:1 Langmuir binding model or using a steady state model when kₒₙ or koff was beyond the detection limit. The equilibrium dissociation constant (KD) was calculated as the ratio of association rate constant (kₒₙ) and dissociation rate constant (koff).
(§2) In both cases, the SPR experiments were performed as described above.

For assay [2], the target named is T2, human TfR extracellular domain with N-terminal His tag (human, UniProt P02786 89-760).
T2 construct: Biotinylated in some assays; also called huTfR; HuTfR
Description: SPR, IgG.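 Further: His-tagged TfR captured via immobilized anti-His antibody on a CM5 chip, antibody injected in 3-fold dilution series by single cycle kinetics, 1:1 Langmuir or steady-state fit.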
Description: as §1, §2

Assay [3] concerns the target T3, human BACE1 ECD.
T3 construct: analyte of the Octet assay (200 nM) and enzyme of the first short substrate assay; also called human BACE1 extracellular domain
The assay is described as follows: Octet, pH 7.5.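 Further: antibodies captured on anti-human capture sensor tips, dissociation monitored in PBS with BSA, Kd obtained from kinetic fit to a one-to-one binding model.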 On the technique in general: Biolayer interferometry detects binding as a change in optical thickness at a sensor tip.
Description: (§3) Anti-BACE1 antibodies were loaded onto anti-human capture (AHC) sensors (tips) followed by 60 seconds baseline in assay buffer. […] Tips were transferred to assay buffer for 5 minutes, 30 minutes, or 120 minutes depending on the off-rate, for off-rate measurement. Assay buffer was either PBS+0.1% BSA, pH 7.5; or PBS+0.1% BSA, pH 5.0. Kinetics were analyzed using a 1:1 binding model.

The target in assay [4] is T4, murine BACE1 ECD.
T4 construct: analyte of the Octet assay (200 nM) and enzyme of the first short substrate assay
The assay is described as follows: Octet, pH 7.5.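 Further: antibodies captured on anti-human capture sensor tips, dissociation monitored in PBS with BSA, Kd obtained from kinetic fit to a one-to-one binding model.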
Description: as §3

Assay [5] concerns the target BACE1 in primary mouse cortical neurons (mouse, UniProt P56818 46-501). Description: cell-based or functional assay.
Assay [6] deals with T3, human BACE1 ECD. The assay is described as follows: Octet, pH 5.0.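 Further: antibodies captured on anti-human capture sensor tips, dissociation monitored in PBS with BSA buffer, kinetics fitted with a one-to-one binding model.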
Description: as §3
Assay [7] concerns the target T4, murine BACE1 ECD. The assay is described as follows: Octet, pH 5.0.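 Further: antibodies captured on anti-human capture sensor tips, dissociation monitored in PBS with BSA buffer, kinetics fitted with a one-to-one binding model.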
Description: as §3
For assay [8], the target named is T5, human BACE1 (R&D Systems) (human, UniProt P56817).
T5 construct: recombinant, commercial (R&D Systems)
The assay is described as follows: SPR (Biacore).
Description: Binding affinities of certain anti-BACE1 IgGs were measured by surface plasmon resonance (SRP) using a BIAcore™-T100 instrument. […] Association rates (kon) and dissociation rates (koff) were calculated using a simple one-to-one Langmuir binding model (BIAcore Evaluation Software version 3.2). The equilibrium dissociation constant (KD) was calculated as the ratio koff/kon.

The text below walks through data of US20180057604A1 (Genentech, published 2018).

T5 sequence (P56817 22-457 limits assumed): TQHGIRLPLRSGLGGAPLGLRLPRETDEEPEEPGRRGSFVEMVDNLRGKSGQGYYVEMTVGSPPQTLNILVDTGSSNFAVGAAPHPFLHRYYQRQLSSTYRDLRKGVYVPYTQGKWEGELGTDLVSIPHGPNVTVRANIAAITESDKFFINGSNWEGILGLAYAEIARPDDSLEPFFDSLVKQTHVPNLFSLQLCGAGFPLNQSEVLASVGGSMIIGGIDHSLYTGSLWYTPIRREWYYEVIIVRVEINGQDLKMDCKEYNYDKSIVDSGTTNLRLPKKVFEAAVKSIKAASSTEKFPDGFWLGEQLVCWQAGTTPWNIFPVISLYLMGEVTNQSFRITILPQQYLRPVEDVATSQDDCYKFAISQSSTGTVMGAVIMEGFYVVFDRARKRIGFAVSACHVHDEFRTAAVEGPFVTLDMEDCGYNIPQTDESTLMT
T4 sequence (single chain, as listed by the source limits assumed): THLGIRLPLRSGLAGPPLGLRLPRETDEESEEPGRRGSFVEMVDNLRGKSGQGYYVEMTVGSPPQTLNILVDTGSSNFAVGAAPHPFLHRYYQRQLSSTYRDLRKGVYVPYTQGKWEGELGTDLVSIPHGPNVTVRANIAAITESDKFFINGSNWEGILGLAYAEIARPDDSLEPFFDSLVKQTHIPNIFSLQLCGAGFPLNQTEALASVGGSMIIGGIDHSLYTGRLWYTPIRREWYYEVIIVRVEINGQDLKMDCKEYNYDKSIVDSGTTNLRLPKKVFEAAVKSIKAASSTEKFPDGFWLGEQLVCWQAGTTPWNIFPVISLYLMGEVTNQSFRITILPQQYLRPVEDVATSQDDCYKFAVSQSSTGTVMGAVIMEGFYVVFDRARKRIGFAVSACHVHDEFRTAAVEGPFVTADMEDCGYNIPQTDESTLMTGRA
T3 sequence (single chain, as listed by the source limits assumed): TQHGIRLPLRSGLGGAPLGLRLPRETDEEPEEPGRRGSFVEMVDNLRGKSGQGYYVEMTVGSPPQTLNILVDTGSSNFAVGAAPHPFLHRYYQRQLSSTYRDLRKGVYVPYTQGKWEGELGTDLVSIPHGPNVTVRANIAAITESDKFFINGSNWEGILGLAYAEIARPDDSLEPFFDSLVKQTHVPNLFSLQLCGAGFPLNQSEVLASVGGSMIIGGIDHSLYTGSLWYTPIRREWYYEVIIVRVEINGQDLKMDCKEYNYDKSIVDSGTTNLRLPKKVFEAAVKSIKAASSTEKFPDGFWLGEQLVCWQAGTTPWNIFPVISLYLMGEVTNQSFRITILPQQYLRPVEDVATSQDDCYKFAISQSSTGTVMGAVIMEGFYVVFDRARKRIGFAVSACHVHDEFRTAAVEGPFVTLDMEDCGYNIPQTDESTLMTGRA
BACE1 in primary mouse cortical neurons, sequence (P56818 46-501): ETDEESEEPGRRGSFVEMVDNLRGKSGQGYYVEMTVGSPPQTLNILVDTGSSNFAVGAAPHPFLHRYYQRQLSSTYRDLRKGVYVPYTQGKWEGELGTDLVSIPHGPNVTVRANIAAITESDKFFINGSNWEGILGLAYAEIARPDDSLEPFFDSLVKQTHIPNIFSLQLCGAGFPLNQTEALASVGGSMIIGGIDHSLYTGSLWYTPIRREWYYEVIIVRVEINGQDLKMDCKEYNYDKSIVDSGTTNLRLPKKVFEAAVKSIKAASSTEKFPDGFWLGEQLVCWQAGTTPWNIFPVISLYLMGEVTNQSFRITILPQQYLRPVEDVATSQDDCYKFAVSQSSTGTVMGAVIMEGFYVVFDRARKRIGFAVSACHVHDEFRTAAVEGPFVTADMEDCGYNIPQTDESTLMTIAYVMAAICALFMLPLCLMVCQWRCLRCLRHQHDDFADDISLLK
T2 sequence (P02786 89-760 G142S): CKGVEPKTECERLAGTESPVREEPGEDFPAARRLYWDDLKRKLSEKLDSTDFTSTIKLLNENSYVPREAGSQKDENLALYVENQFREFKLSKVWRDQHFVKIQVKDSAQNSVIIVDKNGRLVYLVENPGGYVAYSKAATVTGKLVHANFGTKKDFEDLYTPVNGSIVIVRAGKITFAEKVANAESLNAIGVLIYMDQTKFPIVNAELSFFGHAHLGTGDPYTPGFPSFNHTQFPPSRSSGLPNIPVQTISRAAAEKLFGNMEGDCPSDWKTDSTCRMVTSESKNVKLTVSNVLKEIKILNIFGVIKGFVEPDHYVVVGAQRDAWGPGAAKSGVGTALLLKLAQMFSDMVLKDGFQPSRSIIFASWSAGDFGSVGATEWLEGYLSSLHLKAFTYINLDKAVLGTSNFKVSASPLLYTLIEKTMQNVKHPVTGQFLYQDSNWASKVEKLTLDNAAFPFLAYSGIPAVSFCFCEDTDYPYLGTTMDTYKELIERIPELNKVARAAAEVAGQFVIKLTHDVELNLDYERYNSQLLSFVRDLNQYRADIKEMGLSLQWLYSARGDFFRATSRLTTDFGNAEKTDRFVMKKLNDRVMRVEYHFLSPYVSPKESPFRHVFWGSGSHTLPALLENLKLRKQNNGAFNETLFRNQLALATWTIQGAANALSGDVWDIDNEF

B1: hu16F6.v1 (antibody, V domains shown)
VH: EVQLVESGPGLVKPSETLSLTCTVSGNSITSEYAWNWIRQPPGKGLEWIGYISYSGTTSYNPSLKSRVTISVDTSKNQFSLKLSSVTAADTAVYYCARYGYGNPATRYFDVWGQGTLVTVSS
VL: DIQMTQSPSSLSASVGDRVTITCRASKSISKYLAWYQQKPGKAPKLLLYSGSTLQSGVPSRFSGSGSGTDYTLTISSLQPEDFATYYCQQHNEYPWTFGQGTKVEIK
notes: IgG; HC 71 V, 78 F
Consider B1, for which the Kd (as a rule, the free concentration of one partner at which half of the binding sites on the other are occupied at equilibrium, for simple one-to-one binding) in assay [1] amounted to 199 nM; in assay [2] it was 18.7 nM.

B2: hu16F6.v4 (antibody, V domains shown)
VH: EVQLVESGPGLVKPSETLSLTCTVSGNSITSEYAWNWIRQPPGKGLEWIGYISYSGTTSYNPSLKSRVTISRDTSKNQLSLKLSSVTAADTAVYYCARYGYGNPATRYFDVWGQGTLVTVSS
VL: DIQMTQSPSSLSASVGDRVTITCRASKSISKYLAWYQQKPGKTNKLLLYSGSTLQSGVPSRFSGSGSGTDYTLTISSLQPEDFATYYCQQHNEYPWTFGQGTKVEIK
notes: IgG; HC 71 R, 78 L; also called 16F6.v4 IgG
As for B2, the values for the Kd in assay [1] and in assay [2] were 11 nM and 0.884 nM, respectively.

B3: hu16F6.v3 (antibody, V domains shown)
VH: EVQLVESGPGLVKPSETLSLTCTVSGNSITSEYAWNWIRQPPGKGLEWIGYISYSGTTSYNPSLKSRVTISVDTSKNQFSLKLSSVTAADTAVYYCARYGYGNPATRYFDVWGQGTLVTVSS
VL: DIQMTQSPSSLSASVGDRVTITCRASKSISKYLAWYQQKPGKTNKLLLYSGSTLQSGVPSRFSGSGSGTDYTLTISSLQPEDFATYYCQQHNEYPWTFGQGTKVEIK
notes: IgG; HC 71 V, 78 F
As to B3, the Kd in assay [1] turned out to be 34.5 nM; in assay [2] it was 4.11 nM.

B4: hu7A4.v7 (antibody, V domains shown)
VH: EVQLVQSGAEVKKPGASVKVSCKASGYTFTDYAMHWVRQAPGQGLEWMGGISTYFGRTNYNQKFKGRVTMTVDTSISTAYMELSRLRSDDTAVYYCARGLSGNYVMDYWGQGTTVTVSS
VL: DIVMTQSPDSLAVSLGERATINCRASESVDSYGNSFMHWYQQKPGQPPKLLIYRASNLESGIPDRFSGSGSGTDFTLTISSLQAEDVAVYYCQQSNEGPPTFGQGTKLEIK
notes: IgG
Consider B4, for which the figures for the Kd in assay [1] and in assay [2] were 1.18 nM and 0.515 nM, respectively.

B5: hu7A4.v10 (antibody, V domains shown)
VH: EVQLVQSGAEVKKPGASVKVSCKGSGYTFTDYAMHWVRQAPGQGLEWMGGISTYFGRTNYNQKFKGRVTMTRDTSISTAYMELSRLRSDDTAVYYCARGLSGNYVMDYWGQGTTVTVSS
VL: DIVMTQSPDSLAVSLGERATINCRASESVDSYGNSFMHWYQQKPGQPPKLLIYRASNLESGVPDRFSGSGSRTDFTLTISSLQAEDVAVYYCQQSNEGPPTFGQGTKLEIK
notes: IgG
Regarding B5, the Kd is 0.505 nM in assay [1] and 0.143 nM in assay [2].

B6: hu7A4.v11 (antibody, V domains shown)
VH: EVQLVQSGAEVKKPGASVKVSCKASGYTFTDYAMHWVRQAPGQGLEWMGGISTYFGRTNYNQKFKGRVTMTVDTSISTAYMELSRLRSDDTAVYYCARGLSGNYVMDYWGQGTTVTVSS
VL: DIVMTQSPDSLAVSLGERATINCRASESVDSYGNSFMHWYQQKPGQPPKLLIYRASNLESGVPDRFSGSGSRTDFTLTISSLQAEDVAVYYCQQSNEGPPTFGQGTKLEIK
notes: IgG
As for B6, the values for the Kd in assay [1] and in assay [2] were 0.943 nM and 0.156 nM, respectively.

B7: hu7A4.v9 (antibody, V domains shown)
VH: EVQLVQSGAEVKKPGASVKVSCKASGYTFTDYAMHWVRQAPGQGLEWMGGISTYFGRTNYNQKFKGRVTMTRDTSISTAYMELSRLRSDDTAVYYCARGLSGNYVMDYWGQGTTVTVSS
VL: DIVMTQSPDSLAVSLGERATINCRASESVDSYGNSFMHWYQQKPGQPPKLLIYRASNLESGVPDRFSGSGSRTDFTLTISSLQAEDVAVYYCQQSNEGPPTFGQGTKLEIK
notes: IgG
B7: the Kd was determined as 0.428 nM in assay [1] and 0.119 nM in assay [2].

B8: hu7A4.v12 (antibody, V domains shown)
VH: EVQLVQSGAEVKKPGASVKVSCKGSGYTFTDYAMHWVRQAPGQGLEWMGGISTYFGRTNYNQKFKGRVTMTVDTSISTAYMELSRLRSDDTAVYYCARGLSGNYVMDYWGQGTTVTVSS
VL: DIVMTQSPDSLAVSLGERATINCRASESVDSYGNSFMHWYQQKPGQPPKLLIYRASNLESGVPDRFSGSGSRTDFTLTISSLQAEDVAVYYCQQSNEGPPTFGQGTKLEIK
notes: IgG
With B8, the results for the Kd in assay [1] and in assay [2] were 2.09 nM and 0.2 nM, respectively.

B9: 6270 (antibody, V domains shown)
VH: QVQLVQSGAEVKKPGSSVKVSCKASGGTFSGYGISWVRQAPGQGLEWMGNIIPGFGTANYAQKFQGRVTITADESTSTAYMELSSLRSEDTAVYYCARSGGTKYGMLDVWGQGTMVTVSS
VL: EIVMTQSPATLSVSPGERATLSCRASQSVSSNLAWYQQKPGQAPRLLIYGASTRATGIPARFSGSGSGTEFTLTISSLQSEDFAVYYCQQLLLWPPRTFGGGTKVEIK
notes: anti-BACE1 IgG
Consider B9, for which the Kd with human BACE1 ECD [3] is less than 0.29 nM; in the assay with murine BACE1 ECD [4], less than 0.4 nM; with human BACE1 ECD [6], less than 0.29 nM; with murine BACE1 ECD [7] it was less than 0.41 nM; in assay [8] it was 4.64 nM. For the same molecule, the “IC50, Abeta x-40 in mouse cortical neurons” value in assay [5] was found to be 4.48 nM. The “maximal % inhibition of Abeta x-40” value in assay [5] is 85%.

B10: 6288 (antibody, V domains shown)
VH: QLQLQESGPGLVKPSETLSLTCTVSGGSTSSSSYYWGWIRQPPGKGLEWIGSIYRSGSTYYNPSLRSRVTISVDTSKNQFSLKLSSVTAADTAVYYCARVGHGISYFDLWGRGTLVTVSS
VL: EIVLTQSPATLSLSPGERATLSCRASQSVSSYLAWYQQKPGQAPRLLIYDASNRATGIPARFSGSGSGTDFTLTISSLEPEDFAVYYCQQSLTWPPRTFGGGTKVEIK
notes: anti-BACE1 IgG
In the case of B10, the Kd in the assay with human BACE1 ECD [3] was less than 0.21 nM; in the assay with murine BACE1 ECD [4] it was less than 0.23 nM; with human BACE1 ECD [6], less than 0.21 nM; in the assay with murine BACE1 ECD [7], 0.28 nM; in assay [8], 4.79 nM. The “IC50, Abeta x-40 in mouse cortical neurons” value in assay [5] turned out to be 11 nM. In addition, the “maximal % inhibition of Abeta x-40” value in assay [5] is 67%.

B11: 6274 (antibody, V domains shown)
VH: QVQLVQSGAEVKKPGSSVKVSCKASGGTFSGYGISWVRQAPGQGLEWMGNIIPGFGTANYAQKFQGRVTITADESTSTAYMELSSLRSEDTAVYYCARSGGTKYGMLDVWGQGTMVTVSS
VL: EIVMTQSPATLSVSPGERATLSCRASQSVSSHLAWYQQKPGQAPRLLIYGASTRATGIPARFSGSGSGTEFTLTISSLQSEDFAVYYCQQLILWPPRTFGGGTKVEIK
notes: anti-BACE1 IgG
Turning to B11, the Kd with human BACE1 ECD [3] is less than 0.37 nM; in the assay with murine BACE1 ECD [4], less than 0.37 nM; in the assay with human BACE1 ECD [6], 0.53 nM; with murine BACE1 ECD [7] it was 0.76 nM; in assay [8], 4.18 nM. Further, in assay [5], the “IC50, Abeta x-40 in mouse cortical neurons” value is 4.82 nM. The “maximal % inhibition of Abeta x-40” value in assay [5] was 85%.

B12: 6275 (antibody, V domains shown)
VH: QVQLVQSGAEVKKPGSSVKVSCKASGGTFRGYAISWVRQAPGQGLEWMGNIIPGFGTANYAQKFQGRVTITADESTSTAYMELSSLRSEDTAVYYCARSGGTKYGMLDVWGQGTMVTVSS
VL: EIVMTQSPATLSVSPGERATLSCRASQSVSSNLAWYQQKPGQAPRLLIYGASTRATGIPARFSGSGSGTEFTLTISSLQSEDFAVYYCQQLFLWPPRTFGGGTKVEIK
notes: anti-BACE1 IgG
In the case of B12, the Kd with human BACE1 ECD [3] is less than 0.48 nM; with murine BACE1 ECD [4], less than 0.49 nM; in the assay with human BACE1 ECD [6] it was less than 0.34 nM; in the assay with murine BACE1 ECD [7], less than 0.37 nM; in assay [8], 2.68 nM. For the same molecule, the “IC50, Abeta x-40 in mouse cortical neurons” value in assay [5] amounted to 1.27 nM. In addition, the “maximal % inhibition of Abeta x-40” value in assay [5] came to 71%.

B13: 6279 (antibody, V domains shown)
VH: QVQLVQSGAEVKKPGSSVKVSCKASGGTFRGYAISWVRQAPGQGLEWMGNIIPGFGTANYAQKFQGRVTITADESTSTAYMELSSLRSEDTAVYYCARSGGTKYGMLDVWGQGTMVTVSS
VL: EIVMTQSPATLSVSPGERATLSCRASQSVSSNLAWYQQKPGQAPRLLIYGASTRATGIPARFSGSGSGTEFTLTISSLQSEDFAVYYCQQLLLWPPRTFGGGTKVEIK
notes: anti-BACE1 IgG
On to B13, for which the Kd with human BACE1 ECD [3] is less than 0.45 nM; in the assay with murine BACE1 ECD [4] it was less than 0.46 nM; with human BACE1 ECD [6] it was less than 0.36 nM; with murine BACE1 ECD [7], less than 0.43 nM; in assay [8] it was 2.11 nM. Besides, the “IC50, Abeta x-40 in mouse cortical neurons” value in assay [5] came to 6.23 nM. In assay [5], the “maximal % inhibition of Abeta x-40” value came out at 71%.
